# Numbered stars: 1 amine (or outer) side, 2 acyl side, 3 side chain; on linkers, the order of the positions; unused ones are H or OH. Bridge positions count the residues as written; N and C are the ends. Side chains are listed from the residue outwards. Ends that are not written are not given here. * marks the point of attachment. C20 diacid = O=C(O)CCCCCCCCCCCCCCCCCCC(=O)*; γGlu = O=C(O)[C@H](CCC(=O)[*:2])N[*:1]; AEEA = NCCOCCOCC(=O)O
# B1: N^α1-[(4S)-4-carboxy-4-(19-carboxynonadecanoylamino)butanoyl]-[His14,Arg17,Pro21,Pro27,Glu35]-h-amylin (peptide)
# peptide: {C20 diacid-γGlu}-KCNTATCATQRLAHFLRHSSPNFGAIPSSTNVGSETY-NH2
# modifications: disulfide 2-7
# SMILES: CC[C@H](C)[C@H](NC(=O)[C@H](C)NC(=O)CNC(=O)[C@H](Cc1ccccc1)NC(=O)[C@H](CC(N)=O)NC(=O)[C@@H]1CCCN1C(=O)[C@H](CO)NC(=O)[C@H](CO)NC(=O)[C@H](Cc1c[nH]cn1)NC(=O)[C@H](CCCNC(=N)N)NC(=O)[C@H](CC(C)C)NC(=O)[C@H](Cc1ccccc1)NC(=O)[C@H](Cc1c[nH]cn1)NC(=O)[C@H](C)NC(=O)[C@H](CC(C)C)NC(=O)[C@H](CCCNC(=N)N)NC(=O)[C@H](CCC(N)=O)NC(=O)[C@@H](NC(=O)[C@H](C)NC(=O)[C@@H]1CSSC[C@H](NC(=O)[C@H](CCCCN)NC(=O)CC[C@H](NC(=O)CCCCCCCCCCCCCCCCCCC(=O)O)C(=O)O)C(=O)N[C@@H](CC(N)=O)C(=O)N[C@@H]([C@@H](C)O)C(=O)N[C@@H](C)C(=O)N[C@@H]([C@@H](C)O)C(=O)N1)[C@@H](C)O)C(=O)N1CCC[C@H]1C(=O)N[C@@H](CO)C(=O)N[C@@H](CO)C(=O)N[C@H](C(=O)N[C@@H](CC(N)=O)C(=O)N[C@H](C(=O)NCC(=O)N[C@@H](CO)C(=O)N[C@@H](CCC(=O)O)C(=O)N[C@H](C(=O)N[C@@H](Cc1ccc(O)cc1)C(N)=O)[C@@H](C)O)C(C)C)[C@@H](C)O
# notes: also called compound 30
# B2: N^ε1-[2-[2-[2-(19-carboxynonadecanoylamino)ethoxy]ethoxy]acetyl]-[Arg17,Pro21,Pro27]-h-amylin (peptide)
# peptide: K([AEEA-C20 diacid])CNTATCATQRLANFLRHSSPNFGAIPSSTNVGSNTY-NH2
# modifications: disulfide 2-7; N-terminus assumed
# SMILES: CC[C@H](C)[C@H](NC(=O)[C@H](C)NC(=O)CNC(=O)[C@H](Cc1ccccc1)NC(=O)[C@H](CC(N)=O)NC(=O)[C@@H]1CCCN1C(=O)[C@H](CO)NC(=O)[C@H](CO)NC(=O)[C@H](Cc1c[nH]cn1)NC(=O)[C@H](CCCNC(=N)N)NC(=O)[C@H](CC(C)C)NC(=O)[C@H](Cc1ccccc1)NC(=O)[C@H](CC(N)=O)NC(=O)[C@H](C)NC(=O)[C@H](CC(C)C)NC(=O)[C@H](CCCNC(=N)N)NC(=O)[C@H](CCC(N)=O)NC(=O)[C@@H](NC(=O)[C@H](C)NC(=O)[C@@H]1CSSC[C@H](NC(=O)[C@@H](N)CCCCNC(=O)COCCOCCNC(=O)CCCCCCCCCCCCCCCCCCC(=O)O)C(=O)N[C@@H](CC(N)=O)C(=O)N[C@@H]([C@@H](C)O)C(=O)N[C@@H](C)C(=O)N[C@@H]([C@@H](C)O)C(=O)N1)[C@@H](C)O)C(=O)N1CCC[C@H]1C(=O)N[C@@H](CO)C(=O)N[C@@H](CO)C(=O)N[C@H](C(=O)N[C@@H](CC(N)=O)C(=O)N[C@H](C(=O)NCC(=O)N[C@@H](CO)C(=O)N[C@@H](CC(N)=O)C(=O)N[C@H](C(=O)N[C@@H](Cc1ccc(O)cc1)C(N)=O)[C@@H](C)O)C(C)C)[C@@H](C)O
# notes: also called compound 43
# Columns and labels:
# [1] = target: T1, human amylin receptor (amylin 3(a) receptor: human calcitonin receptor plus RAMP-3) (human, UniProt P30988 25-474; O60896 24-148, limits assumed); assay: cell-based or functional assay
# T1 sequence (looked up) 1: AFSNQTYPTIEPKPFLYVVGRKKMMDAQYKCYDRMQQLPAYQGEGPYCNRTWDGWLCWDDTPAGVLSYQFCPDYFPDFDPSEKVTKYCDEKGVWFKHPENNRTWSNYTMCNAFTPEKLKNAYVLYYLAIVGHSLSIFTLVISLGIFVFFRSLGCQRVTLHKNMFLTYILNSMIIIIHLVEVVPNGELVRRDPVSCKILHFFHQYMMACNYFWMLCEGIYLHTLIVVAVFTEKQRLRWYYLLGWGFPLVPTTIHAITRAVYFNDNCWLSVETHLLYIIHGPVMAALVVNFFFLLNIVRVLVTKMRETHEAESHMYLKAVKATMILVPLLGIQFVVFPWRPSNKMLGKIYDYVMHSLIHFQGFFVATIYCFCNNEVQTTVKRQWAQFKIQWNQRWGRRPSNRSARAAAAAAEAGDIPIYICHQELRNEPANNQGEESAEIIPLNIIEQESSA
# T1 sequence (looked up) 2: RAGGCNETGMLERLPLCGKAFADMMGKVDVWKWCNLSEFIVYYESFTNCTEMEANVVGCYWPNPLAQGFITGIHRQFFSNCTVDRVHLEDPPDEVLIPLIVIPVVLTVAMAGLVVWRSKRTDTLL
# [2] = target: T2, human calcitonin receptor (human, UniProt P30988 25-474); assay: cell-based or functional assay
# T2 sequence (looked up): T1 sequence (looked up) 1
binder,measurement,setting,value
B1,hAmylin-R funct. EC50,[1],0.134 nM
same,hCTR funct. EC50,[2],1.68 nM
B2,hAmylin-R funct. EC50,[1],0.141 nM
same,Ratio hCT/hAmylin funct. (hCTR EC50 against hAmylin-R EC50),[2],6.5
same,hCTR funct. EC50,[2],0.92 nM

# From patent US20140087995A1 (published 2014)
